Assay [1] addresses ZYG11B-EloBC (Homo sapiens, UniProt Q9C0D3). Kind of assay: MBP pull-down with substrate receptor module ZYG11B-EloBC. Conditions: R466A mutation of ZYG11B, recombinant purified proteins, Figure S9A. The class given is binding. As to the method: Peptides corresponding to […] and […] were appended to the N terminus of maltose-binding protein (MBP) and cloned into pET-28a containing an N-terminal His6 tag followed by a TEV protease cleavage site. Fusion proteins were purified by Ni-NTA chromatography, digested with TEV protease, and passed over Ni-NTA resin again to remove TEV and the cleaved His6 tag. Final purification was performed by size-exclusion chromatography. The resulting proteins contained MBP fused to N-terminal Gly/N-degron overhangs. For pulldown experiments, approximately 100 μg MBP fusion protein was immobilized on 50 μL amylose resin and incubated with prey protein at a 1:1 molar ratio for 1 h at 4°C. Resin was washed three times, and bound proteins were eluted in sizing buffer supplemented with 20 mM maltose. Samples were analyzed by SDS-PAGE and Coomassie staining. Pulldown efficiency was quantified as the ratio of MBP–NLRP1 degron signal to ZYG11B signal in the same gel lane. […]
incubation of full-length Cyclin B1 without Gly/N-degron with ZYG11B–EloBC (top). SDS–PAGE analysis of the indicated fractions from the Superose 6 column (dashed lines) confirms complex formation (bottom) C, fluorescence anisotropy binding of ZYG11B-EloBC to indicated fluorescein-labeled peptides (left) and fitted equilibrium dissociation constants (right). […]

The test system of assay [2] is NLRP1 inflammasome. In kind it is cell-based, human.

Changes are numbered by the printed parent chain. Names may count otherwise.

Chain of ZYG11B-EloBC (Q9C0D3 whole entry, the tested form may be a part): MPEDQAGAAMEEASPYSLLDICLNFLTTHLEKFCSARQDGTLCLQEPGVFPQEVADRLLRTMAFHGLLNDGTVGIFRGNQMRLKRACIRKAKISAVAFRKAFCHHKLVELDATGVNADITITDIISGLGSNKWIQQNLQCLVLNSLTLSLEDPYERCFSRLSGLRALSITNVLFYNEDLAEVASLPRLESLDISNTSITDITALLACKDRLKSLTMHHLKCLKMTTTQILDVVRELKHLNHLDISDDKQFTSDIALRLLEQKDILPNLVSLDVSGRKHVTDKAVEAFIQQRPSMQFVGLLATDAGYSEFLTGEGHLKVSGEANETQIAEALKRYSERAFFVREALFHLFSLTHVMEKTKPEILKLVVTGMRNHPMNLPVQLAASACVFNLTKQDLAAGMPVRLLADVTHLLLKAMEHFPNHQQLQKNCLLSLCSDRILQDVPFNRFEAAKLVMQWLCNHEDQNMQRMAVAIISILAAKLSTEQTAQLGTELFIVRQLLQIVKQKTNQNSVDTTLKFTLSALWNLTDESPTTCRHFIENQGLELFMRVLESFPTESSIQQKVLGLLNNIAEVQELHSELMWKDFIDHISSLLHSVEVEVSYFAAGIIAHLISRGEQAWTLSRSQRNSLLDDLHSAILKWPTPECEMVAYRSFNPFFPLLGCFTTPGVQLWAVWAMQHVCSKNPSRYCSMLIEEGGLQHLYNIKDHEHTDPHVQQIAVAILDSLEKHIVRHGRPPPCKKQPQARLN
Chain of ZYG11B-EloBC (Q15370 whole entry partner, the tested form may be a part): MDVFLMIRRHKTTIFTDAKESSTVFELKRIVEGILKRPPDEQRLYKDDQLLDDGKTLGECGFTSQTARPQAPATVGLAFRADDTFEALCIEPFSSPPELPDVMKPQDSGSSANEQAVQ
Chain of ZYG11B-EloBC (Q15369 17-112 partner limits assumed): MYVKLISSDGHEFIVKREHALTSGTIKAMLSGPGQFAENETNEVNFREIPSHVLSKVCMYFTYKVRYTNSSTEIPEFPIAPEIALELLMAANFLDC

B1: NLRP1 Gly/N-degron: C-terminal fragment generated by 3C cleavage, which exposes the Gly/N-degron, begins at glycine-131 (protein)
chain: GSERRVLRQLPDTSGRRWREISASLLYQALPSSPDHESPSQESPNAPTSTAVLGSWGSPPQPSLAPREQEAPGTQWPLDETSGIYYTEIREREREKSEKGRPPWAAVVGTPPQAHTSLQPHHHPWEPSVRESLCSTWPWKNEDFNQKFTQLLLLQRPHPRSQDPLVKRSWPDYVEENRGHLIEIRDLFGPGLDTQEPRIVILQGAAGIGKSTLARQVKEAWGRGQLYGDRFQHVFYFSCRELAQSKVVSLAELIGKDGTATPAPIRQILSRPERLLFILDGVDEPGWVLQEPSSELCLHWSQPQPADALLGSLLGKTILPEASFLITARTTALQNLIPSLEQARWVEVLGFSESSRKEYFYRYFTDERQAIRAFRLVKSNKELWALCLVPWVSWLACTCLMQQMKRKEKLTLTSKTTTTLCLHYLAQALQAQPLGPQLRDLCSLAAEGIWQKKTLFSPDDLRKHGLDGAIISTFLKMGILQEHPIPLSYSFIHLCFQEFFAAMSYVLEDEKGRGKHSNCIIDLEKTLEAYGIHGLFGASTTRFLLGLLSDEGEREMENIFHCRLSQGRNLMQWVPSLQLLLQPHSLESLHCLYETRNKTFLTQVMAHFEEMGMCVETDMELLVCTFCIKFSRHVKKLQLIEGRQHRSTWSPTMVVLFRWVPVTDAYWQILFSVLKVTRNLKELDLSGNSLSHSAVKSLCKTLRRPRCLLETLRLAGCGLTAEDCKDLAFGLRANQTLTELDLSFNVLTDAGAKHLCQRLRQPSCKLQRLQLVSCGLTSDCCQDLASVLSASPSLKELDLQQNNLDDVGVRLLCEGLRHPACKLIRLGLDQTTLSDEMRQELRALEQEKPQLLIFSRRKPSVMTPTEGLDTGEMSNSTSSLKRQRLGSERAASHVAQANLKLLDVSKIFPIAEIAEESSPEVVPVELLCVPSPASQGDLHTKPLGTDDDFWGPTGPVATEVVDKEKNLYRVHFPVAGSYRWPNTGLCFVMREAVTVEIEFCVWDQFLGEINPQHSWMVAGPLLDIKAEPGAVEAVHLPHFVALQGGHVDTSLFQMAHFKEEGMLLEKPARVELHHIVLENPSFSPLGVLLKMIHNALRFIPVTSVVLLYHRVHPEEVTFHLYLIPSDCSIRKAIDDLEMKFQFVRIHKPPPLTPLYMGCRYTVSGSGSGMLEILPKELELCYRSPGEDQLFSEFYVGHLGSGIRLQVKDKKDETLVWEALVKPGDLMPATTLIPPARIAVPSPLDAPQLLHFVDQYREQLIARVTSVEVVLDKLHGQVLSQEQYERVLAENTRPSQMRKLFSLSQSWDRKCKDGLYQALKETHPHLIMELWEKGSKKGLLPLSS
Take B1: the “binding to ZYG11B-EloBC R466A mutant versus WT” value in assay [1] was “relatively strong reduction”.

B2: E133K: E133K mutation of NLRP1 (residue E3 of the Gly/N-degron) (protein)
chain: B1 chain with E3K
For B2, the “inflammasome activation of NLRP1 mutant upon HRV 3Cpro” value in assay [2] was “reduced inflammasome activation”.

For the origin of these results see article PMC13379236 (Cell reports, 2026).
